Assay results reported in US20250121086A1, “LIVER-TARGETED SUBSTANCE AND USE THEREOF” (HANMI PHARM. CO., LTD., priority 2021, published 2025).
Bridge positions count the residues as written; N and C are the ends. Square brackets hold non-standard residues; d marks the D form. Ends that are not written are not given here. Aib = CC(C)(N)C(=O)O

molecular target: human glucagon receptor (human, UniProt P47871 26-477); experiment: cell-based or functional assay
Sequence (P47871 26-477): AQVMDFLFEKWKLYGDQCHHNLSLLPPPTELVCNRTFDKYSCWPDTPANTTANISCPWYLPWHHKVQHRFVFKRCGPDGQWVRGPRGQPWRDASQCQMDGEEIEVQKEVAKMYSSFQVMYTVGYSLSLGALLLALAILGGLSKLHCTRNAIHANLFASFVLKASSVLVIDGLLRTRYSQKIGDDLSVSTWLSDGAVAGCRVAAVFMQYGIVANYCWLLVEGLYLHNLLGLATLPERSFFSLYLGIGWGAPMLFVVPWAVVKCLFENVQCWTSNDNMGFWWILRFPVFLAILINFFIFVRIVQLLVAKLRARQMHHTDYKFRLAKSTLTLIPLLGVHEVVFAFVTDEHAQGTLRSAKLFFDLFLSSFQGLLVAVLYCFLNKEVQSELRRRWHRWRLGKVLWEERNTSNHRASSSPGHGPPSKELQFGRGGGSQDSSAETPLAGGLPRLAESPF

Binder | In vitro activity (relative activity compared with SEQ ID NO: 1, %); cAMP EC50 in CHO cells expressing human GCG receptor [%]
Y[Aib]QGTFTSDYSKYLDEKCAKEFVQWLMNT (lactam 16-20) [glucagon derivative peptide of SEQ ID NO: 21] | 57.8
YSQGTFTSDYSKYLDSCEADDFVQWLMNT [glucagon derivative peptide of SEQ ID NO: 7] | < 0.1
SQGTFTSDYSKYLDECRAKEFVQWLMNT (lactam 15-19) [glucagon derivative peptide of SEQ ID NO: 32] | 0.7
Y[Aib]QGTFTSDYSKYLDSCDADDFVVWLINT [glucagon derivative peptide of SEQ ID NO: 10] | < 0.1
Y[Aib]QGTFTSDYSKYCDEKRAKEFVQWLMNT (lactam 16-20) [glucagon derivative peptide of SEQ ID NO: 23] | 76.8
Y[Aib]QGTFTSDYSKYLCEKRAQDFVVWLMNT [glucagon derivative peptide of SEQ ID NO: 15] | 1.1
Y[Aib]QGTFTSDYSCYLDSRRAQDFVQWLMNT [glucagon derivative peptide of SEQ ID NO: 13] | 5.2
Y[Aib]QGTFTSDYSKYLDCRRAQVFVQWLMRT [glucagon derivative peptide of SEQ ID NO: 16] | 4.2
Y[Aib]QGTFTSDYSKYLDCKRAKEFVQWLMNT [glucagon derivative peptide of SEQ ID NO: 14] | 18.1
Y[Aib]QGTFTSDYSKYLDEKRAKCFVQWLMNT (lactam 16-20) [glucagon derivative peptide of SEQ ID NO: 25] | 46.9
Y[Aib]QGTFTSDYSKYLDCVRAQDFVQWLMRT [glucagon derivative peptide of SEQ ID NO: 17] | 23.2
W[Aib]QGTFTSDYSKYLDECRAKDFVQWLMNT (lactam 16-20) [glucagon derivative peptide of SEQ ID NO: 26] | 1
Y[Aib]QGTFTSDYSKYLDECRAKEFVQWLMNT (lactam 16-20) [glucagon derivative peptide of SEQ ID NO: 20] | 300
Y[Aib]QGTFTSDYSKYLCEKRAKEFVQWLMNT (lactam 16-20) [glucagon derivative peptide of SEQ ID NO: 19] | 12.1
Y[Aib]QGTFTSDYSKYLDEKCAKEFVQWLMNT [glucagon derivative peptide of SEQ ID NO: 11] | 4.6
Y[Aib]QGTFTSDYSKYLDSCDAQDFVVWLINT [glucagon derivative peptide of SEQ ID NO: 9] | < 0.1
HSQGTFTSDYSKYLDCDRAQDFVQWLMNT [glucagon derivative peptide of SEQ ID NO: 2] | 0.6
Y[Aib]QGTFTSDYSKYLDEKRCKEFVQWLMNT (lactam 16-20) [glucagon derivative peptide of SEQ ID NO: 22] | 148
Y[Aib]QGTFTSDYSKCLDERRAKDFVQWLMNT (lactam 16-20) [glucagon derivative peptide of SEQ ID NO: 29] | 61.3
Y[Aib]QGTFTSDYSKYLDSRRACDFRLWLMNT [glucagon derivative peptide of SEQ ID NO: 18] | < 0.1
HSQGTFTSDYSKYLDSCEAQDFVQWLMNT [glucagon derivative peptide of SEQ ID NO: 5] | 0.3
W[Aib]QGTFTSDYSKCLDERRAKDFVQWLMNT (lactam 16-20) [glucagon derivative peptide of SEQ ID NO: 30] | 0.3
Y[Aib]QGTFTSDYSKYLDCKRAKEFVQWLMNT (lactam 17-21) [glucagon derivative peptide of SEQ ID NO: 31] | 6.3
W[Aib]QGTFVSDYSKYLDECRAKDFVQWLMNT (lactam 16-20) [glucagon derivative peptide of SEQ ID NO: 28] | < 0.1
HSQGTFTSDYSKYLDSCEADDFVQWLMNT [glucagon derivative peptide of SEQ ID NO: 6] | < 0.1
Y[Aib]QGTFTSDYSKCLDEKRAKEFVQWLMNT (lactam 16-20) [glucagon derivative peptide of SEQ ID NO: 24] | 58
Y[Aib]QGTFVSDYSKYLDECRAKDFVQWLMNT (lactam 16-20) [glucagon derivative peptide of SEQ ID NO: 27] | 93.6
HSQGTFTSDYSKYLDSCDAQDFVQWLMNT [glucagon derivative peptide of SEQ ID NO: 4] | < 0.1
Y[Aib]QGTFTSDYSKYLDSCDAQDFVQWLINT [glucagon derivative peptide of SEQ ID NO: 8] | < 0.1
HSQGTFTSDYSKYLDCERAQDFVQWLMNT [glucagon derivative peptide of SEQ ID NO: 3] | 6.1

Other lines, results leading:

In vitro activity (relative activity compared with SEQ ID NO: 1, %); cAMP EC50 in CHO cells expressing human GCG receptor [%] | Binder
17.7 | Y[Aib]QGTFTSDYSKYCDERRAKEFVQWLMNT (lactam 16-20) [glucagon derivative peptide of SEQ ID NO: 35]
108 | YXQGTFTSDYSKYLDSRRAQDFVQWLMNT (aminoisobutyric acid (Aib) at position 2 (printed X)) [glucagon derivative peptide of SEQ ID NO: 33]
37.9 | Y[Aib]QGTFCSDYSKYLDSRRAQDFVQWLMNT [glucagon derivative peptide of SEQ ID NO: 42]
0.2 | W[Aib]QGTFTSDYSKYCDERRAKEFVQWLMNT (lactam 16-20) [glucagon derivative peptide of SEQ ID NO: 34]
3.7 | Y[Aib]QGTFVSDCSKYLDERRAKDFVQWLMNT (lactam 16-20) [glucagon derivative peptide of SEQ ID NO: 39]
226 | Y[Aib]QGTFTSDYSKYLDERRAKEFVQWLMNTC (lactam 16-20) [glucagon derivative peptide of SEQ ID NO: 37]
167 | Y[Aib]QGTFCSDYSKYLDERRAKEFVQWLMNT (lactam 16-20) [glucagon derivative peptide of SEQ ID NO: 38]
45.2 | Y[Aib]QGTFCSDYSKYLDERRAKDFVQWLMNT (lactam 16-20) [glucagon derivative peptide of SEQ ID NO: 41]
40.8 | Y[Aib]QGTFVSDYSKYLDERRAKDFVQWLMNTC (lactam 16-20) [glucagon derivative peptide of SEQ ID NO: 40]
5.2 | Y[Aib]QGTFTSDYSCYLDEKRAKEFVQWLMNT [glucagon derivative peptide of SEQ ID NO: 45]
75.4 | YXQGTFTSDYSKYLDSRRAQDFVQWLMNTC (aminoisobutyric acid (Aib) at position 2 (printed X)) [glucagon derivative peptide of SEQ ID NO: 44]
9.9 | Y[Aib]QGTFTSDCSKYLDERRAKEFVQWLMNT (lactam 16-20) [glucagon derivative peptide of SEQ ID NO: 36]
1.6 | Y[Aib]QGTFTSDCSKYLDSRRAQDFVQWLMNT [glucagon derivative peptide of SEQ ID NO: 43]
